Measurements reported in publication PMC2886031.
Read-outs that look alike come from different tables or passages of the source.

T1: PacI (R.PacI) restriction endonuclease (Pseudomonas alcaligenes, UniProt D5MNX7 1-142)
T1 sequence: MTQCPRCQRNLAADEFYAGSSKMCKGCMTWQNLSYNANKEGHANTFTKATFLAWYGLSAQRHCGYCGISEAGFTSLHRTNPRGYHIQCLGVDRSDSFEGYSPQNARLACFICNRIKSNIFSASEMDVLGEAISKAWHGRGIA

B1: 18 bp PacI cognate duplex (uncleaved) (dsDNA)
DNA 1: GAGGCTTAATTAAGCCGC
DNA 2: GCGGCTTAATTAAGCCTC
B2: 18 bp PacI cognate duplex, cleaved product (dsDNA)
DNA 1: GAGGCTTAAT
DNA 2: TAAGCCGC
DNA 3: GCGGCTTAAT
DNA 4: TAAGCCTC
modifications: 5' phosphate at the cleaved ends

Experiments:
[1] = biological target: T1, PacI (R.PacI) restriction endonuclease; test: X-ray crystallography
[2] = biological target: T1, PacI (R.PacI) restriction endonuclease; test: X-ray crystallography; remark: listed apart in the source

Binder	binding result [1]	binding result [2]
B1	binds	–
B2	–	binds
